In the data set the target is CA125 (carbohydrate antigen 125) (UniProt Q8WXI7 1-14451). The data set is described as follows: AuNP aggregation aptasensor (A660/A520); 200 nM aptamer, citrate AuNPs ~13 nm, NaCl 1 M stock added after binding; linear 15-160 U/mL, LOD 14.41 U/mL; 50 uL CA125 (15-160 U/mL) + 50 uL aptamer (200 nM), 30 min, room temperature; then 50 uL AuNPs 5 min, 10 uL 1 M NaCl 5 min; buffer and pH not stated. Particulars: protein: commercial; predicted stem-loop.

We go through one molecule from article PMC11827763, “A Gold Nanoparticle-based Aptasensor for Specific Detection of CA125”.

With TCACTATAGGGAGACAAGAATAAACGCTCAA (ssDNA) [CA125 aptamer (31-mer)], the binding result is on record as “binds”.
